Data taken from patent US20190284262A1 (Memorial Sloan Kettering, published 2019).

Legend:
T2+EW [1] = biological target: T1, T2+EW (Homo sapiens, UniProt A*02:01); experiment: flow cytometry, phage on T2 + EW peptide; secondary only 310, unstained 93
T1 construct: on the surface of T2 cells; irrelevant control peptide; also called EW peptide/HLA-A*02:01 complex on T2 cells; T2 pulsed with EW peptide

[2] = biological target: T2, 017-mut9 peptide (…)/HLA-A*02:01 complex on T2 cells (human); experiment: flow cytometry, phage on peptide-loaded T2 cells
T2 construct: Alanine mutant at position 9

[3] = biological target: T3, Foxp3-7 peptide/HLA-A*02:01 complex on the cell surface (human); experiment: flow cytometry, phage on peptide-loaded T2 cells
T3 construct: also called Foxp3-7/HLA-A2 complex

[4] = biological target: T4, 017-mut7 peptide (…)/HLA-A*02:01 complex on T2 cells (human); experiment: flow cytometry, phage on peptide-loaded T2 cells
T4 construct: Alanine mutant at position 7

[5] = biological target: T5, 017-mut4 peptide (…)/HLA-A*02:01 complex on T2 cells (human); experiment: flow cytometry, phage on peptide-loaded T2 cells
T5 construct: Alanine mutant at position 4

[6] = biological target: T6, 017-mut1 peptide (…)/HLA-A*02:01 complex on T2 cells (human); experiment: flow cytometry, phage on peptide-loaded T2 cells
T6 construct: Alanine mutant of Foxp3-7 at position 1, pulsed onto T2 cells; also called EXT017-mut1

[7] = biological target: T7, 017-mut8 peptide (…)/HLA-A*02:01 complex on T2 cells (human); experiment: flow cytometry, phage on peptide-loaded T2 cells
T7 construct: Alanine mutant at position 8; also called TLI-A8

[8] = biological target: T8, 017-mut3 peptide (…)/HLA-A*02:01 complex on T2 cells (human); experiment: flow cytometry, phage on peptide-loaded T2 cells
T8 construct: Alanine mutant at position 3

[9] = biological target: T9, 017-mut5 peptide (…)/HLA-A*02:01 complex on T2 cells (human); experiment: flow cytometry, phage on peptide-loaded T2 cells
T9 construct: Alanine mutant at position 5

[10] = biological target: T10, 017-mut2 peptide (…)/HLA-A*02:01 complex on T2 cells (human); experiment: flow cytometry, phage on peptide-loaded T2 cells
T10 construct: Alanine mutant at position 2, the anchor position; the peptide may load poorly onto HLA-A2; also called EXT017-mut2

[11] = biological target: T3, Foxp3-7 peptide/HLA-A*02:01 complex on …; experiment: flow cytometry, phage on T2 + Foxp3-7 peptide; secondary only 104, unstained 81.7
[12] = biological target: T11, R3 (RHAMM-R3) peptide/HLA-A*02:01 complex on T2 cells (human); experiment: flow cytometry, phage on T2 + R3 peptide; secondary only 123, unstained 99.8
T11 construct: Control target of the phage staining of T2 cells; also called T2 cells pulsed with R3 peptide; RHAMM 3 (R3)

[13] = biological target: T12, HLA-A*02:01 on T2 cells alone (no peptide added) (human); experiment: flow cytometry, phage on T2 cells, no peptide
T12 construct: TAP-deficient T2 cells without pulsed peptide; negative control target, and the HLA molecule whose stabilisation by peptides is read in the T2 stabilization assay; also called HLA-A*02 molecule; HLA-A2 molecule

[14] = biological target: T11, R3 (RHAMM-R3) peptide/HLA-A*02:01 …; experiment: flow cytometry, phage on T2 + R3 peptide (as the table names the samples); secondary only 109, unstained 80.9
[15] = biological target: T3, Foxp3-7 peptide/HLA-A*02:01 complex on …; experiment: flow cytometry, phage on T2 + Foxp3-7 peptide; secondary only 318, unstained 95.8
[16] = biological target: T12, HLA-A*02:01 on T2 cells alone (no …); experiment: flow cytometry, phage on T2 cells
[17] = biological target: T3, Foxp3-7 peptide/HLA-A*02:01 complex on …; experiment: flow cytometry, phage on T2 + Foxp3-7 peptide; secondary only 116, unstained 93.8
[18] = biological target: T12, HLA-A*02:01 on T2 cells alone (no …); experiment: flow cytometry, phage on T2 without peptide; secondary only 121, unstained 106
[19] = biological target: T12, HLA-A*02:01 on T2 cells alone (no …); experiment: flow cytometry, phage on T2 without peptide; secondary only 320, unstained 91.4
T2+EW [20] = biological target: T1, T2+EW; experiment: flow cytometry, phage on T2 + EW peptide; secondary only 113, unstained 94.7
[21] = biological target: T3, Foxp3-7 peptide/HLA-A*02:01 complex on …; experiment: flow cytometry, phage on T2 + Foxp3-7 peptide; secondary only 133, unstained 103
[22] = biological target: T12, HLA-A*02:01 on T2 cells alone (no …); experiment: flow cytometry, phage on T2 without peptide; secondary only 100, unstained 99.5
[23] = biological target: T12, HLA-A*02:01 on T2 cells alone (no …); experiment: flow cytometry, phage on T2 without peptide
[24] = biological target: T12, HLA-A*02:01 on T2 cells alone (no …); experiment: flow cytometry, phage on T2 without peptide; remark: listed apart in the source

Binder | Median:FITC-A (T2+EW [1]) | MFI [2] | MFI [3] | MFI [4] | MFI [5] | MFI [6] | MFI [7] | MFI [8] | MFI [9] | MFI [10] | Median:FITC-A [11] | Median:FITC-A [12] | MFI [13] | Median:FITC-A [14] | Median:FITC-A [15] | binding result [16] | Median:FITC-A [17] | Median:FITC-A [18] | Median:FITC-A [19] | other results
EXT017-28 scFv phage clone (scFv, full-length scFv with His+HA tags; also called EXT017-28 phage; phage clone #28) scFv: QSVLTQPPSVSGAPGQRVTISCTGSSSNIGAGYDVHWYQQLPGTAPKLLIYGNSDRPSGVPDRFSGSKSGTSASLAITGLQAEDEADYYCQSYDSSLSGYVFGTGTKVTVLGSRGGGGSGGGGSGGGGSLEMAQMQLVQSGAEVKKPGSSVKVSCKASGGTFSTYAISWVRQAPGQGLEWMGGIIPIFGTANYAQKFQGRVTITADKSTSTAYMEVRNLRSEDTAVYYCARAEYVYGEYDQWGQGTLVTVSSTSGQAGQHHHHHHGAYPYDVPDYAS | 338 | 5890 | 39500 | 96.4 | 108 | 20100 | 27500 | 13400 | 107 | 102 | 2790 | 140 | 93.9 | 118 | 1740 | no binding | 873 | 144 | 353 | 
EXT017-17 scFv phage clone (scFv, fusion to the phage coat protein not described; also called EXT017-17 phage; phage clone #17) scFv: QSVLTQPPSVSGAPGQRVTISCTGSSSNIGAGYDVHWYQQLPGTAPKLLIYGNSNRPSGVPDRFSGSKSGTSASLAITGLQAEDEADYYCQSYDSSLSGYVFGTGTKVTVLGSRGGGGSGGGGSGGGGSLEMAEVQLVQSGAEVKKPGSSVKVSCKASGDTFSRYAISWVRQAPGQGLEWMGRIIPIFGTPNYAQKFQGRVTITADEFTSTAYMELSSLRSEDTAMYYCARSIYRYSEYDHWGQGTLVTVSSTSGQAGQHHHHHHGAYPYDVPDYAS |  | 94.7 | 23600 | 97.8 | 103 | 7880 | 3590 | 741 | 98.1 | 99.8 | 2590 | 146 | 92.9 | 124 |  | no binding | 745 | 143 |  | Median:FITC-A (T2+EW [20]): 144; Median:FITC-A [21]: 1760; Median:FITC-A [22]: 151
EXT017-54 scFv phage clone (scFv, full-length scFv with His+HA tags; also called EXT017-54 phage) scFv: QAVLTQPPSLSGGPRQRVTISCSGSTSNIGKNGVSWYQQLPGKAPKLLIYNDHLLSSGVSDRFSGSKSGTSASLAISGLQSDDEADYYCATWDDTLDLPLFGGGTKVTVLGSRGGGGSGGGGSGGGGSLEMAQMQLVQSGAEVEKPGASVKLSCKASGGTFSSYAISWVRQAPGQGLEWMGGIIPIFGTANYAQKFQGRVTITADESTSTAYMELSSLRSEDTAVYYCARPSYYSIKSAWDHWGQGTLVTVSSTSGQAGQHHHHHHGAYPYDVPDYAS | 364 | 3540 | 30400 | 91.1 |  | 23500 | 5850 | 7780 | 91.2 | 94.7 | 4370 |  | 89.9 | 122 | 732 |  |  |  | 343 | binding result [23]: no binding
EXT017-32 scFv phage clone (scFv, also called EXT017-32 phage; phage clone #32) scFv: QSVLTQPPSVSVAPGKTARITCGGNNIGSKSVHWYQQKPGQAPVLVIYYDSDRPSGIPERFSGSNSGNTATLTISRVEAGDEADYYCQVWDSSSDHYVFGTGTKVTVLGSRGGGGSGGGGSGGGGSLEMAEVQLVESGGGVVQPGRSLRLSCAASGFTFNNHAMHWVRQAPGKGLEWVAVISFDGDDKFYADSVKGRFTISRDNSRNTLFLQMNNLRPEDTAVYYCSRDPYHFASGSYSYFDYWGQGTLVTVSSTSGQAGQHHHHHHGAYPYDVPDYAS | 357 | 93.6 | 27500 | 99.6 | 20800 | 15100 | 96.7 | 21000 | 2710 | 103 | 3840 | 136 | 91.8 | 123 | 1640 | no binding | 4070 | 138 | 356 | 
Clone #24 (scFv, also called EXT017-24; EXT017-24 scFv phage clone) scFv (VL-linker-VH-His/HA tag): QAVLTQPPSVSAAPGQKVTISCSGSSSNIGNNYVSWYQQLPGTAPKLLIYDNNKRPSGLPDRFSGSKSGTSATLGITGLQTGDEADYYCGTWDSSLNAVVFGGGTQLTVLSSRGGGGSGGGGSGGGGSLEMAQVQLVQSGAEVKKPGASVKVSCKASGYTFTNYYIHWVRQAPGQGLEWMGIIRPSGGITNYAQKFQGRVTMTRDTSTSTVYMELSSLRSEDTAVYYCARSWSNKLSWYNDGWGQGTLVTVSSTSGQAGQHHHHHHGAYPYDVPDYAS |  |  |  |  |  |  |  |  |  |  |  |  |  |  |  |  |  |  |  | binding result [24]: no binding; Median:FITC-A (T2+EW [20]): 141; Median:FITC-A [21]: 1040; Median:FITC-A [22]: 146
EXT017-27 scFv phage clone (scFv, full-length scFv with His+HA tags; also called EXT017-27 phage; phage clone #27) scFv: QAVLTQPPSVSVAPGKTARLTCGGNNIGSESVHWYQQKPGQAPLLVVYDDDDRPSGIPERFSGSNSGNTATLTISRVEAGDEADYYCQVWDRSSDHWFFGGGTKLTVLGSRGGGGSGGGGSGGGGSLEMAQVQLVQSGAEVKKPGASVKVSCKASGYTFTNYYIHWVRQAPGQGLEWMGIIRPSGGITNYAQKFQGRVSMTRDTSTSTVYMELSSLRSEDTAVYYCARSWDYFASNDFWGQGTLVTVSSTSGQAGQHHHHHHGAYPYDVPDYAS | 371 | 131 | 21200 | 96.3 | 99 | 222 | 6400 | 2260 | 95.4 | 98.2 | 2820 | 145 | 90.4 | 123 | 1940 | no binding | 658 | 150 | 355 | 
EXT017-53 scFv phage clone (scFv, full-length scFv with His+HA tags; also called EXT017-53 phage) scFv: NFMLTQPHSVSESPGKTVTISCTRSSGSIASHYVQWYQQRPGSSPTTVIYENNQRPSGVPDRFSGSIDSSSNSASLTISGLKTEDEADYYCQSYDRSNHVVFGGGTKLTVLGSRGGGGSGGGGSGGGGSLEMAQVQLVQSGAEVKKPGASVKVSCKASGYTFTNYYIHWVRQAPGEGLEWMGIIRPSGGNTNYAQKFQGRVTMTRDTSTRTVYMELSSLRSEDTAVYYCARSWNSRDVDSWGQGTLVTVSSTSGQAGQHHHHHHGAYPYDVPDYAS | 346 | 149 | 25800 | 98.9 | 95.8 | 1100 | 12100 | 5780 | 98.5 | 95.3 | 2700 |  | 89.5 | 121 | 1050 |  |  |  | 355 | binding result [23]: no binding
